Source: the DeepSol protein solubility set

Assay: soluble on expression in E. coli; label from the status in PepcDB or PDB records
With “MGSDKIHHHHHHMSHHIEDLLNAWSAAPQDDWVLAVVTHVEGSAYRKVGAMMLIHGMGKSVGLVSGGCLEADLRRRAQKVIQTGQAASVCYDATDEADASYQLGCGGLVHLMLLPLCAANHYLHFQALKAALASQGRCHYQLMLTDESLSPGSLGAKVWTSQQALDDAKAGWQLSDFPRPGILQGQSMQGETVRGQSLQDESVQGESASLVVPLREHHRIAIFGGGLDAQPVCQIAQQLGWRVDVVDRRTSYAREYDFVGANIIKLPVSELPKNFWTRLDGAIVMQHNLELDAKALAAIHQHAKQLSYLALLGPGHRRDRVLALAGLEVASFGAYFSAPAGLALGGELPSSIALSILSECHGVLHGAKRVALKEVMA” the “soluble on expression in E. coli” value was “not soluble”.
In the case of “MAHHHHHHMSTFARRRIIQDLNKINKEKNKSFEASPFADNIMYCHAIIRGPDDTIWECGIFHLIIHFSEEYPVSPPKLRFLSKIYHPNIYSDGNICLDILQNQWSPIYDITSILTSIQSLLNDPNTSSPANPEAARIFINNRNLYNKRVLMCVEDSWEIPKFNINNYS”, the “soluble on expression in E. coli” value is reported as “not soluble”.
For “MQLEPQIKTQLQAIVEAARERRAEDVVALDLTEVSSSLEYFVICTASAGLQLNAVQENIREKAQEAGLPRPSIEGPSERWLLLAFGGSIVVHIMTKDAREYYDLEGLWSDAKVLDL”, the “soluble on expression in E. coli” value was “soluble”.
With “YICRLPAEEIGFPEFYPRISRSMKSIKRPNLIYPAGKGLAVHIYPDKEDVRNYYIPIEPCLFQKLDSMLEEVEKLLIDVIHDQEINTNDPEEKKKLLVKALEKTCD” the “soluble on expression in E. coli” value was “not soluble”.
With “MKHFRKELWFETRQRRQFINITPTVRECLRESGIREGLLLCNAMHITASVFINDDESGLHHDFEVWLEGLAPEKPYDRYRHNGYEDNADAHLKRTVMGREVVVAVTAGELDLGPWEQIFYGEFDGKRRKRVLIKIIGELEHHHHHH” the “soluble on expression in E. coli” value was “not soluble”.
With “MVLAPFFEKAPSLIIAPDGSVLFECICNANPQPTVKWFLKDKELTGDRYVSKIKKMVGKFTVTLHIKNPTQEDQGVYKVTATNTHGSHSVEQQYIYKCTGKEVFKTLD” the “soluble on expression in E. coli” value was “soluble”.
In the case of “MGSDKIHHHHHHMVKDKNDVGPKTVAILGAGGKMGARITRKIHDSAHHLAAIEIAPEGRDRLQGMGIPLTDGDGWIDEADVVVLALPDNIIEKVAEDIVPRVRPGTIVLILDAAAPYAGVMPERADITYFIGHPCHPPLFNDETDPAARTDYHGGIAKQAIVCALMQGPEEHYAIGADICETMWSPVTRTHRVTTEQLAILEPGLSEMVAMPFVETMVHAVDECADRYGIDRQAALDFMIGHLNVEIAMWFGYSPKVPSDAALRLMEFAKDIVVKEDWREALNPAKVKQAAELIAGK”, the “soluble on expression in E. coli” value is reported as “not soluble”.
With “MGSDKIHHHHHHMRAHVTKKTLSEGLGLLERVIPSRSSNPLLTALKVEASEAGLTLSGTNLEIDLSYFVPAEVQAPQSFVIPAHLFAQIVRNLGGELVELELTGGELSVRAGGSDFKLQTGDLEAYPPLSFPTHTDVSLDAAELARALGSVRYAASNEAFQAVFRGIKLEHRPASARVVASDGYRVAIRDFPASGDGRNLIVPARSADELIRVLKDGEARFTYGEGLLSVTTDRVRMNLKLLDGEFPDYERVIPKDVKLQVTLPATALKEAVGRVAVLADKNANNRVEFLVSEGKLRLAAEGDYGRAQDTLDVVQGGAEPAMSLAFNARHVLDALGPIEGDAELLFSGSTSPAIFRASGGGDYMAVMVTLRV” the “soluble on expression in E. coli” value was “not soluble”.
With “MMTQTLLIELLTEELPPKALNNLGNHFAASVAEGLEKAQLVDGAAEFTAYASPRRLAVQVKNVKAVQADQKIVKKGPAVANAMKDGAPTKALEGFARGAGAKIEDLTIVHDGKQDVYAYEYVQIGKPLGGLLEDIINQAVKKLPIPKVMRWGSSTFTFVRPVHGLVVLHGGDIVNVSVLGLQSGNKTLGHRFLSDGEITIENADSYAAQMREQGKVVASFAERKAAIQTVLEGQARRLNATAAADEALLDEVTALVEWPVVLEAGFEEHFLAVPQECLILTMQQNQKYFPLLDQNGKLMNRFLLVSNLQTEDPSHIIQGNERVLRARLSDAEFFYKQDQKATLESRLPKLTNVVYHNKIGSQAERIERLQSIAAHIAKALGADAAAAERAARLAKADLVTEMVGEFPELQGTMGKYYARLDGETEEITEAVEQHYQPRFAGDNLPEGKIAAAVALADKLETLVGIWGIGLIPTGDKDPYALRRAALGILRMLMQYGLDVNELIQTAFNSFPQGLLNEKTPSETADFMQARLAVLLQNDYPQDIVAAVLAKQPRRLDDLTAKLQAVAAFKQLPEAAALAAANKRVQNLLKKADAELGAVNESLLQQDEEKALFAAAQGLQPKIAAAVAEGNFQTALSELASVKPQVDAFFDGVMVMAEDAAVKQNRLNLLNRLAEQMNAVADIALLGE” the “soluble on expression in E. coli” value was “not soluble”.
With “MPYQQITVNVNDAVAERLADALMEHGALSAAIEDAYAGTQNEQAIFGEPGMPAEQIWQQSKVIALFGEHDEAAAIIQTATQECGLK” the “soluble on expression in E. coli” value was “not soluble”.
In the case of “MSLTFLTGVPGFLGTRLLRRLAAAAPDRSFLLLVQPKFEGRTHTLLADRGLADRATVLPGDITEPDLGLGAHYDAVAEQITRAVHLAAVYDLTIPREVGWQVNVEGTRHVLDLLAQCPSLERFGYVSSAYVSGERTGTIHEDELVHEAGFKNFYEETKYHAEVLVQDRMDEIPTLVFRPSIVVGDSETGATDKFDGVYFVLNALRSLPRYTPMTRIGSGTEPVNLVPVDFVVDAMGHLLGTEGHAGTVFHLTDPRPLTAQAIMELLADLLDKRVAYVPVPPGLARAMMKTGVGRALGLAPELIDYFDHPSHYDASNTRAALDGTGIDCPFLPDYAPAMVAYARRHDARSSAMYEGHHHHHH”, the “soluble on expression in E. coli” value is reported as “not soluble”.
In the case of “MEKKVLLTGFDPFGGETVNPSWEAVKRLNGAAEGPASIVSEQVPTVFYKSLAVLREAIKKHQPDIIICVGQAGGRMQITPERVAINLNEARIPDNEGNQPVGEDISQGGPAAYWTGLPIKRIVEEIKKEGIPAAVSYTAGTFVCNHLFYGLMDEISRHHPHIRGGFIHIPYIPEQTLQKSAPSLSLDHITKALKIAAVTAAVHEDDIETGGGELH”, the “soluble on expression in E. coli” value is reported as “soluble”.
For “NSRVSDLDLELLFQDRAARLGKSISRLIVVASLIDKPTNLGGLCRTCEVFGASVLVVGSLQCISDKQFQHLSVSAEQWLPLVEVKPPQLIDYLQQKKTEGYTIIGVEQTAKSLDLTQYCFPEKSLLLLGNEREGIPANLIQQLDVCVEIPQQGIIRSLNVHVSGALLIWEYTRQQLLSHGDTKP”, the “soluble on expression in E. coli” value was “soluble”.
In the case of “MDPLTGVPIRQEVPRLMERTFQENQAETYVLFLINLDRFKLVNDSLGEGYGDQVLQTLVRRLLWQLPNQQWIARVSGDEFIACAAIKGELPKKETLATYISSIIQQPFQVDEVQFTMTASIGAAVYPMDGKSVEMIWNSLERALRHAKARGGNCVSWFCQELKDEWIHPFRLENDLRRAVENQELEHHHHHH”, the “soluble on expression in E. coli” value is reported as “soluble”.
In the case of “SSENQKEVSPPQAISVKSEASSSIFSKPISTSSPAGLAAAQRVTPGKLSTLLLEMGPLAIRHITQTLCLDIPCFKDLSSSKQRRLIMSAMESGDKEKSVVFEKIGWGQWSAKRVDPANFDKELEATNFANAKVKDLISQESQRRKSNNSNSNSGGKVEMPMKVEHNITNIDGATTPPTAVASTTIPVNIKRSKSPLAAANVVYIDENALASEDEDEEFDEDDHHLHYQNKSRNSSNNFGKSSNGDPYSFGRRRSQVVFADSTPENIEHEIIAQKIRPLLRNRRRSSIKPHTPFISKLNTHQDSSYLSPNTTSTTTPSNNNSNSNQAKIDLEKLTATSEPTSRRASRLSVSKESSIRSTLFPNKNYLIVTTNPNSKATSVSTSPKLEEQMNVSSNPIVLSDKEKHRVASQHLNGESSPQLVPHSHHQPHSDTDEEDWESIGAASLRNNSLAPNIDSVASSTNGVVSPKPTNPSFTNSQNGDIEPPLQHDQQKHEQQPRNGEDNSAAFLLMSLKS”, the “soluble on expression in E. coli” value is reported as “soluble”.
For “MAHHHHHHMRVYYSNLVKDKRKCLNFIKVEKKYGGTSLLTKIGQAFNQEHLRNMKTKLDDVKKSSSPFFGTSMEGSNNIFKNFIDIFRKNNIIKDKLKINDSEKKEKEFYMFYVNSLMKYEGIFTYGKFQAFLKDLCDYFNIFSIKYKYKKKMNPQFEKLKKQYEVLNSFLPYELDNDDYKIFTQESKKYIAQAANVDIKFIDELLLFHDTLKTDRTWFYRRKVLKRNIPESFEAREMEAPYDRPVPKTYNYNIKEHSLEYDEFMKKHGRKLKFKQWNSKQHPWFRKNTSGRNRWATRPYTKQFPYLYYSRVPSHMYLSKNKPKISH”, the “soluble on expression in E. coli” value was “not soluble”.
In the case of “MSLSLVIAAGTILGACGNSEKSSGSGEGKNKFSVAMVTDVGGVDDKSFNQSAWEGIQAFGKENGLKKGKNGYDYLQSKSDADYTTNLNKLARENFDLIYGVGYLMEDSISEIADQRKNTNFAIIDAVVDKDNVASITFKEQEGSFLVGVAAALSSKSGKIGFVGGMESELIKKFEVGFRAGVQAVNPKAVVEVKYAGGFDKADVGKATAESMYKSGVDVIYHSAGATGTGVFTEAKNLKKEDPKRDVWVIGVDKDQYAEGQVEGTDDNVTLTSMVKKVDTVVEDVTKKASDGKFPGGETLTYGLDQDGVGISPSKQNLSDDVIKAVDKWKKKIIDGLEIPATEKELKTFKAEEGGSHHHHHH”, the “soluble on expression in E. coli” value is reported as “soluble”.
For “MKKTLTSPLVAAIAHTAAPVHAGTLEDVKARGNLLCSSTTGSPGFSMPDDAGKRHGLEVDVCRAIATAVFGDPERHKIVVLNPIQRFTALQSGEVDILFNTTTWTLSREGAGALYAGVTYYDGQGVLVRKGTIASAKELDGGAICTNQGSTTELNLVDFFRANKVSNEVITFATVQEAANAYESGRCDAWSADAGILAALRSKMKAPDDHVILADRLSKEPLGAAVRKGDDAWFSVVRWSIFALQAAEELGLTSKNIAEQAKSTTNPEVLRFVGKEGSLGKVLGLNGDWAYQIVAQVGSYAEIFDRNIGAASPLNLERGINASWKNGGLFYTPPFR”, the “soluble on expression in E. coli” value was “not soluble”.
In the case of “MKMMDANEIISFIQKSEKKTPVKVYIKGDLKEVTFPETVQAFVNKKSGVLFGEWSEIKTILDENSKYIVDYVVENDRRNSAIPMLDLKGIKARIEPGAIIRDHVEIGDNAVIMMNATINIGAVIGEGSMIDMNAVLGGRATVGKNCHVGAGAVLAGVIEPPSAKPVIVEDDVVIGANVVVLEGVTVGKGAVVAAGAVVTEDVPPYTVVAGTPARVIKEIDEKTKAKTEIKQELRQLNPEK”, the “soluble on expression in E. coli” value is reported as “not soluble”.
With “MQPFDSRQADEVATLLALAEHGSFAAAGRALQRHPSVLSKRLGALERRLGIRLVERTTRQLRFTDEGERLASRFRQAVDLLDEAEHEASLGAAQLRGRLRIALPSAMGRLWLGPLLAEFALAHPQVVLETDYSERFVDIIAEGFDLAIRVGELADSRLVARRLCAHRRILGAAPDYLKRHGVPRIPADLAAHNCLGFSGLHSYPEWKLTRQDEQQPVRVRGSMVSNDNEALLCAARQGLGIFAAGEWLMSRDLEAGRLVRVLPEWKLDADAGVYLVRPSARYATAAASAFRQWVEARFAAGPPWQRQRA” the “soluble on expression in E. coli” value was “not soluble”.
For “MPAFFVKAGAKKSGGGAAATRKRKNGGKSDAKSEEMAAKMSRRQKIMAATEIHSDEEDSLAGSAAASEAGSDVEYEDAHERNYREAKKLLDKIQSTTTTQEEVAEKLRDDAVARTGTQVKRVADVVELEDDLEISYKPHRLSPLCVAFSPDAKYVISCGKESSIVKFNVGTRKVVGIIKRTKKRAGVPEEPTNAHYGVIFTVAVSPDQKFIASGGFDQVVKAPKNMKILFQIWNFDSLEHIKDLSGHRGPIFSLTFQLKTNNLYSASQDRSVKMWDIDQLGLVDTMYGHQDGVQQIGVLSKQRVATVGGRDRSARLWKVEDESQLMFSGLQNCVSLDCVAMINEEHFATGSADGSIALWSFWKKRALHVRKQAHGTQNGSGRWIVALAVLPYSDLLASGSNEGELKLWKISENFRQLTPFFSYSIPGFINSINFAPNGKSIVVGAGKEHKDGRWWVDREARNQVVILPIKYTDGSDNNDVTIGDKTASGTVSGASAGGGGGIESGDESEEEEEELEEELEEEEEEIEE”, the “soluble on expression in E. coli” value was “not soluble”.
